Data on two molecules can be found in EP4631974A1 (Nanjing Vazyme Biotech Co., Ltd., dated 2025).

In experiment [1] the target is T1, RSV A2 pre-F protein (respiratory syncytial virus (RSV) A2, UniProt P03420 26-513).
T1 construct: House-made by Vazyme; also called RSV 2A pre-F protein
Kind of experiment: ELISA, plate-coated RSV A2 pre-F, anti-human IgG Fc-HRP detection. A general note: An ELISA detects its analyte on a solid surface through an enzyme-linked reagent.

For experiment [2], the target named is T1, RSV A2 pre-F protein. As to the kind of experiment: ELISA, plate-coated RSV A2 pre-F, anti-human IgG Fc-HRP detection (2-fold dilutions from 1 ug/mL).

A word on the EC50: it is the concentration at which the effect is half-maximal. A high value points to a need for much substance.

B1: F6-210 (antibody, V domains shown)
VH: QERLAQSGTEVKKPGASVKVSCRALGYTFSDYSIHWVRQAPRQGLEWMGKINTSGGTTTYAQKFQARVTLTSDTSTSTASMELSSLKIEDTAVYYCVAYERATTLAGAGASDIWGQGTLVTVSS
VL: DIVMTQSPLSLPVTPGEPASISCRSSQSLLHSDGYNYLDWYLQKPGQSPHLLIYLGSNRASGVPDRFSGSGSGTDFTLKITRVEPEDVGVYYCMQSLQTPFTFGPGTKVDVKR
notes: Human IgG1 expressed in CHO cells; heavy = VH + IgG1 constant region, light = VL + CL
Molecule B1 returned an EC50 in the experiment with RSV A2 pre-F protein [1] of 0.028 µg/mL.

B2: F6-63 (antibody, V domains shown)
VH: QVQVVESGGGVVEPGGSLSLSCAASGFSFKMHAMHWVRQAPGKGLEWVAFIPYDGSSQYYADSVKGRFTIYRDNFKNTLYLQMNSLRVEDTSLYYCARGGEEGAWSWIGYNSYMDVWGRGTAVTVSS
VL: QSALTQPASVSGSPGQSITISCSGTSSDVGGYDYVCWYQKHPGESPRLIIYDVSRRPSGVSNRFSGSKSGNTASLTISGLQAEDEADYSCSSYTSSNTLIFGGGTKLTVLG
notes: as for B1
Take B2: the EC50 in the experiment with RSV A2 pre-F protein [2] was 0.016 µg/mL.
